Source: ChEMBL document CHEMBL1143427, “Interactions of ceftobiprole with beta-lactamases from molecular classes A to D” (Antimicrob Agents Chemother, 2007)

Columns and labels:
[1] = system: CC1(C)S[C@@H]2[C@H](NC(=O)Cc3ccccc3)C(=O)N2[C@H]1C(=O)O; experiment: (§1) Ratio of Kcat to Km of Morganella morganii AmpC assessed as drug hydrolysis by spectrophotometry
[2] = system: CO/N=C(\C(=O)N[C@@H]1C(=O)N2C(C(=O)[O-])=C(C[N+]3(C)CCCC3)CS[C@H]12)c1csc(N)n1; experiment: as §1
[3] = system: CC(C)(O/N=C(\C(=O)N[C@@H]1C(=O)N2C(C(=O)[O-])=C(C[n+]3ccccc3)CS[C@H]12)c1csc(N)n1)C(=O)O; experiment: as §1
[4] = system: Nc1nc(/C(=N/O)C(=O)N[C@@H]2C(=O)N3C(C(=O)O)=C(/C=C4\CCN([C@@H]5CCNC5)C4=O)CS[C@H]23)ns1; experiment: as §1
[5] = system: O=C(Cc1cccs1)N[C@@H]1C(=O)N2C(C(=O)[O-])=C(C[n+]3ccccc3)CS[C@H]12; experiment: as §1
[6] = system: O=C(Cc1cccs1)N[C@@H]1C(=O)N2C(C(=O)O)=C(/C=C/c3ccc([N+](=O)[O-])cc3[N+](=O)[O-])CS[C@H]12; experiment: as §1
[7] = system: CC1(C)S[C@@H]2[C@H](NC(=O)Cc3ccccc3)C(=O)N2[C@H]1C(=O)O; experiment: (§2) Activity of Morganella morganii AmpC assessed as drug hydrolysis by spectrophotometry
[8] = system: CO/N=C(\C(=O)N[C@@H]1C(=O)N2C(C(=O)[O-])=C(C[N+]3(C)CCCC3)CS[C@H]12)c1csc(N)n1; experiment: as §2
[9] = system: CC(C)(O/N=C(\C(=O)N[C@@H]1C(=O)N2C(C(=O)[O-])=C(C[n+]3ccccc3)CS[C@H]12)c1csc(N)n1)C(=O)O; experiment: as §2
[10] = system: Nc1nc(/C(=N/O)C(=O)N[C@@H]2C(=O)N3C(C(=O)O)=C(/C=C4\CCN([C@@H]5CCNC5)C4=O)CS[C@H]23)ns1; experiment: as §2
[11] = system: O=C(Cc1cccs1)N[C@@H]1C(=O)N2C(C(=O)[O-])=C(C[n+]3ccccc3)CS[C@H]12; experiment: as §2
[12] = system: O=C(Cc1cccs1)N[C@@H]1C(=O)N2C(C(=O)O)=C(/C=C/c3ccc([N+](=O)[O-])cc3[N+](=O)[O-])CS[C@H]12; experiment: as §2
[13] = system: CC(C)(O/N=C(\C(=O)N[C@@H]1C(=O)N2C(C(=O)[O-])=C(C[n+]3ccccc3)CS[C@H]12)c1csc(N)n1)C(=O)O; experiment: (§3) Ratio of Kcat to Km of Pseudomonas aeruginosa VIM2 assessed as drug hydrolysis by spectrophotometry
[14] = system: O=C(Cc1cccs1)N[C@@H]1C(=O)N2C(C(=O)[O-])=C(C[n+]3ccccc3)CS[C@H]12; experiment: as §3
[15] = system: CC(C)(O/N=C(\C(=O)N[C@@H]1C(=O)N2C(C(=O)[O-])=C(C[n+]3ccccc3)CS[C@H]12)c1csc(N)n1)C(=O)O; experiment: (§4) Activity of Pseudomonas aeruginosa VIM2 assessed as drug hydrolysis by spectrophotometry
[16] = system: Nc1nc(/C(=N/O)C(=O)N[C@@H]2C(=O)N3C(C(=O)O)=C(/C=C4\CCN([C@@H]5CCNC5)C4=O)CS[C@H]23)ns1; experiment: as §4
[17] = system: O=C(Cc1cccs1)N[C@@H]1C(=O)N2C(C(=O)[O-])=C(C[n+]3ccccc3)CS[C@H]12; experiment: as §4

For “Beta-lactamase (Morganella morganii) (from UniProt P94958)”, the kcat/Km [1] was 2.4e+07 M⁻¹ s⁻¹, the kcat/Km [2] was under 510 M⁻¹ s⁻¹ and the kcat/Km [3] was under 71000 M⁻¹ s⁻¹. It also gave a kcat/Km [4] of under 2000 M⁻¹ s⁻¹, a kcat/Km [5] of 2.8e+06 M⁻¹ s⁻¹ and a kcat/Km [6] of 3.9e+07 M⁻¹ s⁻¹. The Km [7] was 7.9 µM, the kcat [7] was 190 s⁻¹ and the Km [8] was 690 µM. For the same substance, the kcat [8] was under 0.35 s⁻¹, the Km [9] was 14 µM and the kcat [9] was under 1 s⁻¹. For the same substance, the Km [10] was 23 µM, the kcat [10] was under 0.047 s⁻¹ and the Km [11] was 260 µM. For the same substance, the kcat [11] was 740 s⁻¹, the Km [12] was 31 µM and the kcat [12] was 1200 s⁻¹.
“Beta-lactamase VIM-2 (Pseudomonas aeruginosa) (from UniProt Q9K2N0)” showed a kcat/Km [13] of 1500 M⁻¹ s⁻¹, a kcat/Km [14] of 86000 M⁻¹ s⁻¹ and a Km [15] of 150 µM. For the same substance, the kcat [15] was 0.23 s⁻¹, the Km [16] was 46 µM and the kcat [16] was 15 s⁻¹. For the same substance, the Km [17] was 1400 µM and the kcat [17] was 120 s⁻¹.
